Substitutions are numbered along the chain they refer to.

Experiment [1] deals with T1, TROP2 on TROP2-positive NCI-H1975 cells (human, UniProt P09758 27-323).
T1 sequence: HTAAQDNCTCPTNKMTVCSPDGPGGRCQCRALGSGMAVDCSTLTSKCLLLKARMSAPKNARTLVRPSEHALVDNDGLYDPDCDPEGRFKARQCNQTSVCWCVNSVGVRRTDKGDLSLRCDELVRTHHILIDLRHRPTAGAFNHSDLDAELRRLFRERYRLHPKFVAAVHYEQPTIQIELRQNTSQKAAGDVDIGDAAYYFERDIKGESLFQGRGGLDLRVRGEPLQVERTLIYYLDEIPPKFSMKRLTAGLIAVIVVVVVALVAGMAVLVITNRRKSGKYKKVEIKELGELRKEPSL
As to the kind of experiment: cell-based or functional assay.

Experiment [2] deals with T2, Human TROP2 Protein, His Tag (Acro Biosystems) (human, UniProt P09758 27-274).
T2 construct: not shown: His tag
T2 sequence (looked up): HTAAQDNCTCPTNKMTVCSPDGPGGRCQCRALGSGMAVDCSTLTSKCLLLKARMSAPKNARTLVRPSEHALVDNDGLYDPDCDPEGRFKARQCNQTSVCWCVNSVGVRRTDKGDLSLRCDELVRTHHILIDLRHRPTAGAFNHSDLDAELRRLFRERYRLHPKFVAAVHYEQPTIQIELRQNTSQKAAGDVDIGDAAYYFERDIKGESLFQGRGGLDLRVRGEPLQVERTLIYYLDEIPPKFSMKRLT
The experiment can be described thus: Octet BLI: IgG supernatant on anti-human Fc sensor, 50 nM TROP2-His at pH 7.4, dissociation at pH 7.4 or 5.4; Octet Binding Result 1=pH dependent. The protocol:
(§1) After allowing for four days of protein expression, cell culture supernatants were collected, quantified by SDS-PAGE analysis (DNS), and the pH dependence of the variant was evaluated using biolayer interferometry (BLI) on an Octet RED 96e instrument. Briefly, cell culture supernatants were diluted based on qualitative expression level of the variant determined by visual examination of SDS-PAGE gels, 5 μL of cell culture supernatant was diluted into 195 μL of 1×PBST, pH 7.4 for high expressors, 25 μL of cell culture supernatant was diluted into 175 μL of 1×PBST, pH 7.4 for medium expressors and 100 μL of cell culture supernatant was diluted into 100 μL of 1×PBST, pH 7.4 for low expressors for loading onto the sensor tips. The resulting diluted supernatants were then captured on an anti-human Fc sensor (Forte Bio). A baseline was established using 1×PBST (50 mM Potassium Phosphate Buffer+150 mM NaCl+0.05% Tween 20) pH 7.4, and the sensor was associated with 50 nM of TROP2 (Human TROP2 Protein, His Tag, Acro Biosystems) in 1×PBST pH 7.4 for 120 sec to generate an association curve. In the dissociation phase, the antibody-antigen complex on the sensor was exposed to 1×PBST pH 7.4 or pH 5.4, for 300 sec. Association and dissociation phase curves were examined for the starting ABPC antibody (with no substitutions) and each corresponding antibody variant at pH 5.4 and pH 7.4 to inform on two criteria: a) enhanced dissociation (i.e., higher koff values) at pH 5.4 due to histidine or alanine substitution compared to the starting ABPC, (with no substitutions), and b) reduced dissociation at pH 7.4 (i.e., lower koff values) compared to pH 5.4 in the antibody variant itself and with the starting ABPC (with no substitutions). […] It was also noted that while some mutations obliterated TROP2 binding, others were tolerated with little or n change in TROP2 binding kinetics.

Experiment [3] has as its target T2, Human TROP2 Protein, His Tag (Acro …). The experiment can be described thus: Octet BLI: IgG supernatant on anti-human Fc sensor, 50 nM TROP2-His at pH 7.4; Octet Binding Result 3=No binding. The protocol:
as §1

Experiment [4] shares this target. The experiment can be described thus: BLI (Octet) [2/2].
Experiment [5] addresses T3, Human TROP2 Protein, His Tag (Acro Biosystems) (human, UniProt P09758 27-274).
T3 construct: Bought protein; also called TACSTD2; not shown: His tag
T3 sequence: T2 sequence (looked up)
The experiment can be described thus: BLI (Octet).

B1: MYT11682 (antibody, human IgG1, V domains shown)
VH: QVQLVQSGAEVKKPGASVKVSCKASGYTFTTAGMQWVRQAPGQGLEWMGWINTHSGVPKYAEDFKGRVTISADTSTSTAYLQLSSLKSEDTAVYYCARSGFGSSYWYFDVWGQGTLVTVSS
VL: DIQMTQSPSSLSASVGDRVTITCKASQDHSTAVAWYQQKPGKAPKLLIYSASYRYTGVPSRFSGSGSGTDFTLTISSLQPEDFAVYYCQQHYITPLTFGQGTKLEIK
As to B1, in experiment [1], the “cytotoxicity on TROP2-positive NCI-H1975 cells (antibody complexed to secondary antibody-MMAF, cell titer glow assay)” value (“cytotoxicity” for short) was ~20 % greater cytotoxicity compared to WT datopotamab.

B2: MYT13267 (antibody, V domains shown)
VH: B1 VH with S104H
VL: B1 VL with H29V, Y53H
notes: Full-length IgG from Expi293 supernatant; also called datopotamab heavy chain and light chain pairing variant
B2: the binding result in experiment [2] is given as “binds”.

B3: MYT13273 (antibody, V domains shown)
VH: B1 VH with R98H
VL: B1 VL with H29V, I93H
notes: as for B2
As to B3, the binding result in experiment [2] was “binds”.

B4: MYT13274 (antibody, V domains shown)
VH: B1 VH with F101H
VL: B1 VL with H29V, I93H
notes: as for B2
Turning to B4, in experiment [2], the binding result is on record as “binds”.

B5: MYT13275 (antibody, V domains shown)
VH: B1 VH with S104H
VL: B1 VL with H29V, I93H
notes: as for B2
Turning to B5, the binding result in experiment [2] is recorded as “binds”.

B6: MYT13266 (antibody, V domains shown)
VH: B1 VH with F101H
VL: B1 VL with H29V, Y53H
notes: as for B2
On to B6, for which the binding result in experiment [2] was “binds”.

B7: MYT11766 (antibody, human IgG1, V domains shown)
VH: QVQLQESGPGLVKPSETLSLTCTVSGGSISSYGVHWIRQPPGKGLEWIGVIWTSGVTDYNSALMGRVTISVDTSKNQFSLKLSSVTAADTAVYYCARDGDYDRYTMDYWGQGTLVTVSS
VL: DIVMTQSPDSLAVSLGERATINCRASKSVSTSGYSYMHWYQQKPGQPPKLLIYLASNLESGVPDRFSGSGSGTDFTLTISSLQAEDVAVYYCHHSRELPYTFGQGTKLEIK
On to B7, for which the “cytotoxicity” value in experiment [1] was ~30 % greater cytotoxicity compared to WT datopotamab.

B8: MYT12440 (antibody, human IgG1, V domains shown)
VH: B7 VH
VL: B7 VL with E59H
With B8, in experiment [1], the “cytotoxicity” value was ~30 % greater cytotoxicity compared to WT datopotamab.

B9: MYT11770 (antibody, human IgG1, V domains shown)
VH: B7 VH
VL: B7 VL with H93Q, E97H
On to B9, for which the “cytotoxicity” value in experiment [1] is ~30 % greater cytotoxicity compared to WT datopotamab.

B10: MYT13307 (antibody, V domains shown)
VH: B7 VH with V56H
VL: B7 VL with E59H, H93Q, H94A
notes: Full-length IgG from Expi293 supernatant; also called hu7E6SVG heavy chain and light chain pairing variant
In the case of B10, in experiment [3], the binding result was “no binding (tested: 50 nM)”.

B11: MYT13306 (antibody, V domains shown)
VH: B7 VH with I51H
VL: B7 VL with E59H, H93Q, H94A
notes: as for B10
B11: in experiment [3], the binding result is recorded as “no binding (tested: 50 nM)”.

B12: MYT13311 (antibody, V domains shown)
VH: B7 VH with I51H
VL: B7 VL with E59H, H93Q, T101H
notes: as for B10
On to B12, for which, in experiment [3], the binding result was “no binding (tested: 50 nM)”.

B13: MYT13438 (antibody, V domains shown)
VH: B7 VH with I51H
VL: B7 VL with E59H, H93Q, H94A
notes: as for B10
Regarding B13, the binding result in experiment [4] is recorded as “no binding (tested: 50 nM)”.

B14: MYT13442 (antibody, V domains shown)
VH: B7 VH with M106H
VL: B7 VL with E59H, H93Q, H94A
notes: as for B10
With B14, the binding result in experiment [4] is listed as “no binding (tested: 50 nM)”.

B15: MYT13444 (antibody, V domains shown)
VH: B7 VH with V56H
VL: B7 VL with E59H, H93Q, T101H
notes: as for B10
Consider B15, for which, in experiment [4], the binding result is on record as “no binding (tested: 50 nM)”.

B16: MYT12434 (hu7E6SVG variant, HCV substitutions at 33, 103, 106) (antibody, V domains shown)
VH: B7 VH with G33H, R103H, M106H
VL: B7 VL with H93Q
As for B16, in experiment [5], the binding result is reported as “no binding (tested: 50 nM)”.

B17: MYT12433 (hu7E6SVG variant, HCV substitutions at 33, 56, 106) (antibody, V domains shown)
VH: B7 VH with G33H, V56H, M106H
VL: B7 VL with H93Q
Regarding B17, in experiment [5], the binding result is recorded as “no binding (tested: 50 nM)”.

B18: MYT13447 (antibody, V domains shown)
VH: B7 VH with M106H
VL: B7 VL with E59H, H93Q, T101H
notes: as for B10
For B18, the binding result in experiment [4] was “no binding (tested: 50 nM)”.

B19: MYT12468 (hu7E6SVG variant, LCV substitutions at 60, 94, 101 (Ala at 94)) (antibody, V domains shown)
VH: B7 VH
VL: B7 VL with S60H, H93Q, H94A, T101H
notes: Full IgG in Expi293 supernatant
For B19, in experiment [5], the binding result is given as “no binding (tested: 50 nM)”.

B20: MYT12473 (hu7E6SVG variant, LCV substitutions at 94, 97, 101 (Ala at 94)) (antibody, V domains shown)
VH: B7 VH
VL: B7 VL with H93Q, H94A, E97H, T101H
notes: as for B19
B20: the binding result in experiment [5] is recorded as “no binding (tested: 50 nM)”.

B21: MYT12431 (hu7E6SVG variant, HCV substitutions at 33, 51, 106) (antibody, V domains shown)
VH: B7 VH with G33H, I51H, M106H
VL: B7 VL with H93Q
As to B21, the binding result in experiment [5] was “no binding (tested: 50 nM)”.

B22: MYT13443 (antibody, V domains shown)
VH: B7 VH with I51H
VL: B7 VL with E59H, H93Q, T101H
notes: as for B10
In the case of B22, in experiment [3], the binding result is reported as “no binding (tested: 50 nM)”.

B23: MYT13439 (antibody, V domains shown)
VH: B7 VH with V56H
VL: B7 VL with E59H, H93Q, H94A
notes: as for B10
Consider B23, for which the binding result in experiment [4] is recorded as “no binding (tested: 50 nM)”.

B24: MYT13312 (antibody, V domains shown)
VH: B7 VH with V56H
VL: B7 VL with E59H, H93Q, T101H
notes: as for B10
As to B24, the binding result in experiment [3] was “no binding (tested: 50 nM)”.

The values are drawn from patent US20260274985A1 (MYTHIC THERAPEUTICS, published 2026).
